Test results reported in paper doi:10.1101/2021.07.23.453469 (bioRxiv, 2021).

Biological target: T1, outer-capsid protein σ3 on T3SA- virions (reovirus strain T1L, UniProt P07939 1-365)
T1 sequence (looked up): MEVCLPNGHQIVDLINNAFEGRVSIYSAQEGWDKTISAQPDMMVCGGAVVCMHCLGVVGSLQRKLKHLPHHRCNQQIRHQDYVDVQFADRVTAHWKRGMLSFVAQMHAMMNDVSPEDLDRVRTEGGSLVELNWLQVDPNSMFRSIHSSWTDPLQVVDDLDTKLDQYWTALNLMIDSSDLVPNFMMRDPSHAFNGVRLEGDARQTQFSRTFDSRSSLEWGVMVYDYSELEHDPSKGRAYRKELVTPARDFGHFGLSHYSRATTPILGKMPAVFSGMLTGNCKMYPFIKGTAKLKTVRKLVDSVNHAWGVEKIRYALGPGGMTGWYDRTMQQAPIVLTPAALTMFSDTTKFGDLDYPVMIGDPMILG
Test: cryo-EM structure

B1: NgR1-His (domain or fragment, human, UniProt Q9BZR6 27-310, looked up)
chain: CPGACVCYNEPKVTTSCPQQGLQAVPVGIPAASQRIFLHGNRISHVPAASFRACRNLTILWLHSNVLARIDAAAFTGLALLEQLDLSDNAQLRSVDPATFHGLGRLHTLHLDRCGLQELGPGLFRGLAALQYLYLQDNALQALPDDTFRDLGNLTHLFLHGNRISSVPERAFRGLHSLDRLLLHQNRVAHVHPHAFRDLGRLMTLYLFANNLSALPTEALAPLRALQYLRLNDNPWVCDCRARPLWAWLQKFRGSSSEVPCSLPQRLAGRDLKRLAANDLQGCA
binding result: binds
